Assay results reported in patent publication US20240158474A1 (SINO BIOLOGICAL, published 2024).

Experiments:
Assay in all cases: double-antibody sandwich ELISA on the mixture of 13 HPV VLPs
[1] = target: T1, HPV45 VLP protein (human papillomavirus type 45; human …, UniProt P36741 1-478; P06416 474-499)
T1 construct: range 1-478;range 474-499; Complete VLP protein used as coating protein; also called HPV45L1(1-478L)+HPV33L1(474K-499K)
T1 sequence: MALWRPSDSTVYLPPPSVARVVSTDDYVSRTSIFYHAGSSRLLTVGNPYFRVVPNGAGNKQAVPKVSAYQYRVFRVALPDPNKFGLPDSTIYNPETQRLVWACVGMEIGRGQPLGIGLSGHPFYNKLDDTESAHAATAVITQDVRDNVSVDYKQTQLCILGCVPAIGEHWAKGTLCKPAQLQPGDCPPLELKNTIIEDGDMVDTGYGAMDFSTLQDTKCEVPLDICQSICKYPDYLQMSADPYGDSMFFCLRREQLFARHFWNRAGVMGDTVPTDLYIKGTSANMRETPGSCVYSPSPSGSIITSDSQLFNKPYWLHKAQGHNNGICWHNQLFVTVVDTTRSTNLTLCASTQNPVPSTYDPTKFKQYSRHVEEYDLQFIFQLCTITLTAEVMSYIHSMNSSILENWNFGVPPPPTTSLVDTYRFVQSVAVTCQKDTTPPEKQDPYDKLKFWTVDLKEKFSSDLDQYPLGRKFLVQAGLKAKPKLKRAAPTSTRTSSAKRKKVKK

[2] = target: T2, HPV31 VLP protein (human papillomavirus type 31; human …, UniProt P17388 1-475; P06416 474-499)
T2 construct: range 1-475;range 474-499; Complete VLP protein used as coating protein; also called P31SHELL(1-475Y)+HPV33L1(474K-499K)
T2 sequence: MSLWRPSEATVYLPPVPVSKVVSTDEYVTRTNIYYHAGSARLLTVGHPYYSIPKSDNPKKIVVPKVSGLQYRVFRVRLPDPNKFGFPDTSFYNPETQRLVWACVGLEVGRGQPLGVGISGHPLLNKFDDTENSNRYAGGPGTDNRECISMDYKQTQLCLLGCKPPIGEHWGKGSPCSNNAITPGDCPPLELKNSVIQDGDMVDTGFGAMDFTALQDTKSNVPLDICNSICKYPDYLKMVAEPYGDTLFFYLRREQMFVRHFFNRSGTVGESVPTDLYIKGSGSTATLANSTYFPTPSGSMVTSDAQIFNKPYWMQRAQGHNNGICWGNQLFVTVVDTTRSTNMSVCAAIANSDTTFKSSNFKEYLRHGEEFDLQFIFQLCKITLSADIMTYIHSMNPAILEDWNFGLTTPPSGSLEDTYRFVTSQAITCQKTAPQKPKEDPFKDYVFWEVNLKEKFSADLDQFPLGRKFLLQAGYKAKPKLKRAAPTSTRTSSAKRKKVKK

[3] = target: T3, HPV51 VLP protein (human papillomavirus type 51, UniProt P26536 1-474)
T3 construct: Complete VLP protein; no limits of the construct printed, whole entry named; also called HPV51L1
T3 sequence: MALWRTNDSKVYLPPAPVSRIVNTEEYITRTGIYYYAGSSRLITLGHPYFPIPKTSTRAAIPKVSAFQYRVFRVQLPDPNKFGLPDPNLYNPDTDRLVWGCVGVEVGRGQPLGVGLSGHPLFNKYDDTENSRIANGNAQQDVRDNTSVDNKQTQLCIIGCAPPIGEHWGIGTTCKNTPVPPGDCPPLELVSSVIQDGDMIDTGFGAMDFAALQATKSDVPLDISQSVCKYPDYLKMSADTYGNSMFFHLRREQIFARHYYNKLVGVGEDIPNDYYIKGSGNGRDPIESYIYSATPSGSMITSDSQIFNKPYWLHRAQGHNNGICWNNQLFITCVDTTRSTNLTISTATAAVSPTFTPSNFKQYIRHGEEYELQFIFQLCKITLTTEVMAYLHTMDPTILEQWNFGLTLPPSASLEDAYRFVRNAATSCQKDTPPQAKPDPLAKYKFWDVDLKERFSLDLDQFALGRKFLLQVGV

[4] = target: T4, HPV35 VLP protein (human papillomavirus type 35; human …, UniProt P27232 1-472; P06416 474-499)
T4 construct: range 1-472;range 474-499; Complete VLP protein used as coating protein; also called HPV35L1(1-472L)+HPV33L1(474K-499K)
T4 sequence: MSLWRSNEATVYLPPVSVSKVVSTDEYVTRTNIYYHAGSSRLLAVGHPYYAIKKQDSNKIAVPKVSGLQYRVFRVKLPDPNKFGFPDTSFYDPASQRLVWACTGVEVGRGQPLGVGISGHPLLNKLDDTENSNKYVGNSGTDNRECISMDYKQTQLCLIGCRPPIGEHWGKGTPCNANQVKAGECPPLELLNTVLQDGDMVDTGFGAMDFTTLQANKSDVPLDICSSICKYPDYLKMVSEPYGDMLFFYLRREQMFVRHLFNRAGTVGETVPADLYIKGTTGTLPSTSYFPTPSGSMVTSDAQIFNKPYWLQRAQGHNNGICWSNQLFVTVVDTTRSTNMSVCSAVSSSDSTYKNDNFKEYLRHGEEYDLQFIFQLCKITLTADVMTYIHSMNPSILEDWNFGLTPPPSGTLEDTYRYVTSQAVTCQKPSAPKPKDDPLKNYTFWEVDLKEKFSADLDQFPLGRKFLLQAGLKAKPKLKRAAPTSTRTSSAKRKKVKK

[5] = target: T5, HPV16 VLP protein (human papillomavirus type 16, UniProt P03101 1-474)
T5 construct: Complete VLP protein; no limits of the construct printed, whole entry named; also called HPV-16L1
T5 sequence: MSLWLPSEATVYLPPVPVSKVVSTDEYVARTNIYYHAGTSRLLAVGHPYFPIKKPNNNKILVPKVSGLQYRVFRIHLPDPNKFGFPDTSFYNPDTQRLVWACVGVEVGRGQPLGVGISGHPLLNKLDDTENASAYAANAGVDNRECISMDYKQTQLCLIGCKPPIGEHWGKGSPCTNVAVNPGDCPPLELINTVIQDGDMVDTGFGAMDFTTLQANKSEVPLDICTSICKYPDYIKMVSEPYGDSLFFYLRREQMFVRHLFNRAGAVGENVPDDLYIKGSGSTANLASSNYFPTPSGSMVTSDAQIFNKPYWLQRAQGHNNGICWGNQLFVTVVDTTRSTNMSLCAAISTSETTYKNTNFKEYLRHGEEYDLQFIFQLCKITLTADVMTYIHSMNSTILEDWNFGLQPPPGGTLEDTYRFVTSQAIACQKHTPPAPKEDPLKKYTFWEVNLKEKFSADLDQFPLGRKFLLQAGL

B1: monoclonal antibody HPV6-R003 (antibody, V domains shown)
VH: QQQLEESGGGLVKPGGTLTLTCKASGIDLSNYYMCWVRQAPGKGLEWIGCIYTGSGRTYYASWAKGRFTISKASSTTVTLQMTSLTAADTATYFCARDYLGWRASNIWGPGTLVTVSS
VL: ELVMTQTPSSVSAAVGGTVTINCQASQSVYSNNLVWYQQKPGQPPKLLIYGASTLASGVPSRFKGSGSGTQFTLTISDVVCDDAATYYCGGYVSDSTDGTAFGGGTEVVVKG
notes: here built from variable plus constant region so that the signal peptides are left out; In the sandwich ELISA the same antibody is used as coating antibody and, labelled with horseradish peroxidase, as detection antibody; also called anti-HPV6 L1 protein antibody
binding result [1]: no binding (tested: mixture 50 ng/mL, each subtype 1/13)
binding result [2]: no binding (tested: mixture 50 ng/mL, each subtype 1/13)
binding result [3]: no binding (tested: mixture 50 ng/mL, each subtype 1/13)
binding result [4]: no binding (tested: mixture 50 ng/mL, each subtype 1/13)
binding result [5]: no binding (tested: mixture 50 ng/mL, each subtype 1/13)
